In patent publication US20140235820A1, “METHODS AND COMPOSITIONS FOR MODULATING THE Wnt PATHWAY” (Genentech, Inc., priority 2010, published 2014):
“Also recorded” adds a separate entry of the source.

Experiments:
[1] = biological target: T1, human LRP6 construct E1E2 (amino acids A20-E631) (human, UniProt O75581 20-631, biotinylated for biolayer interferometry); experiment: BLI (Octet Red), biotinylated LRP6 on streptavidin tips, steady state
T1 construct: range 20-631; also called LRP6 E1E2
T1 sequence (looked up): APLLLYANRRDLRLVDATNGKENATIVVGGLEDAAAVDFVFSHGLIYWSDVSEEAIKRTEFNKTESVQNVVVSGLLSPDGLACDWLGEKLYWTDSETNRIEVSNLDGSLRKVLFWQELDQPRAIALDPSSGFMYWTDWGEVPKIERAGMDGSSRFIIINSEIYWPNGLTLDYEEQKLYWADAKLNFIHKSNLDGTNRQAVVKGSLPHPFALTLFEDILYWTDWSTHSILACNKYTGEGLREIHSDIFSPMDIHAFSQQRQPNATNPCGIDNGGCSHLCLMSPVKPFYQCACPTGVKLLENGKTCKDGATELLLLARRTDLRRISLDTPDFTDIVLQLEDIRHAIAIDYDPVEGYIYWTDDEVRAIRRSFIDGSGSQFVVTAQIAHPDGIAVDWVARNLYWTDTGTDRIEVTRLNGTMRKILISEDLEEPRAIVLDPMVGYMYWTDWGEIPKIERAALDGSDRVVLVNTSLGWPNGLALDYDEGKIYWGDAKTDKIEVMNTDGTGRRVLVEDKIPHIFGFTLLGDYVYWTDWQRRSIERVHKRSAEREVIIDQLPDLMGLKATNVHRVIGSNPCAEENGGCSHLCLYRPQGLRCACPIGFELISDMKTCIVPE
Experimental: (§1) Binding kinetics were measured by biolayer interferometry using an Octet Red instrument (ForteBio) as previously described (11). Streptavidin (SA) biosensors were loaded with biotinylated hLRP6 in 50 mMTris, pH 8, 300 mM NaCl, 5% (v/v) glycerol, and 0.05% (w/v) Triton X-100. The loaded biosensors were washed in the same buffer before carrying out association and dissociation measurements for the indicated times. The Kd of each interaction was determined using steady state-analysis through the Octet Red software v6.3. Each reported value represents an average of three or more experiments at different concentrations, with a fitted experimental curve for which the square of the correlation coefficient (R²) is above 0.96.

[2] = biological target: T2, human LRP6 construct E3E4 (amino acids E631-Q1253) (human, UniProt O75581 631-1253, biotinylated for biolayer interferometry); experiment: as above
T2 construct: range 631-1253; also called LRP6 E3E4
T2 sequence (looked up): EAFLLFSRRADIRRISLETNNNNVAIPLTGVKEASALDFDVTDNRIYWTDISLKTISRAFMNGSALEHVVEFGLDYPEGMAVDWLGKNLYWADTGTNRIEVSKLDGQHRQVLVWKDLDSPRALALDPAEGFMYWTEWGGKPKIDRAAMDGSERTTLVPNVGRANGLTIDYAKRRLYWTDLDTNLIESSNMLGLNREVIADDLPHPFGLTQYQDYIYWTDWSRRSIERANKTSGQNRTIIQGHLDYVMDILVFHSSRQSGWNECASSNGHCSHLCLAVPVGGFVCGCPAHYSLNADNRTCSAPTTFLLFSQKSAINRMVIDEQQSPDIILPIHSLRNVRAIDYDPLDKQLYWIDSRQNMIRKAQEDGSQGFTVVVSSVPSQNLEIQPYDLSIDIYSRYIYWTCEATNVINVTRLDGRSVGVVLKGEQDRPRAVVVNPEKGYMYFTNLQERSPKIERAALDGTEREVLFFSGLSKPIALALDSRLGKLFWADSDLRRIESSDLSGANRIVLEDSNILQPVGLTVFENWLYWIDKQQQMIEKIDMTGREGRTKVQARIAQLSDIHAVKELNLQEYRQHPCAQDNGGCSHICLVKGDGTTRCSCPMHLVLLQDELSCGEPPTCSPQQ
Experimental: as §1

[3] = biological target: T3, human LRP6 construct E1E4 (amino acids A20-Q1253) (human, UniProt O75581 20-1253, biotinylated for biolayer interferometry); experiment: BLI (FIG. 9B)
T3 construct: range 20-1253; Expressed in Tni insect cells; tags not specified for this construct; also called LRP6 E1E4
T3 sequence (looked up): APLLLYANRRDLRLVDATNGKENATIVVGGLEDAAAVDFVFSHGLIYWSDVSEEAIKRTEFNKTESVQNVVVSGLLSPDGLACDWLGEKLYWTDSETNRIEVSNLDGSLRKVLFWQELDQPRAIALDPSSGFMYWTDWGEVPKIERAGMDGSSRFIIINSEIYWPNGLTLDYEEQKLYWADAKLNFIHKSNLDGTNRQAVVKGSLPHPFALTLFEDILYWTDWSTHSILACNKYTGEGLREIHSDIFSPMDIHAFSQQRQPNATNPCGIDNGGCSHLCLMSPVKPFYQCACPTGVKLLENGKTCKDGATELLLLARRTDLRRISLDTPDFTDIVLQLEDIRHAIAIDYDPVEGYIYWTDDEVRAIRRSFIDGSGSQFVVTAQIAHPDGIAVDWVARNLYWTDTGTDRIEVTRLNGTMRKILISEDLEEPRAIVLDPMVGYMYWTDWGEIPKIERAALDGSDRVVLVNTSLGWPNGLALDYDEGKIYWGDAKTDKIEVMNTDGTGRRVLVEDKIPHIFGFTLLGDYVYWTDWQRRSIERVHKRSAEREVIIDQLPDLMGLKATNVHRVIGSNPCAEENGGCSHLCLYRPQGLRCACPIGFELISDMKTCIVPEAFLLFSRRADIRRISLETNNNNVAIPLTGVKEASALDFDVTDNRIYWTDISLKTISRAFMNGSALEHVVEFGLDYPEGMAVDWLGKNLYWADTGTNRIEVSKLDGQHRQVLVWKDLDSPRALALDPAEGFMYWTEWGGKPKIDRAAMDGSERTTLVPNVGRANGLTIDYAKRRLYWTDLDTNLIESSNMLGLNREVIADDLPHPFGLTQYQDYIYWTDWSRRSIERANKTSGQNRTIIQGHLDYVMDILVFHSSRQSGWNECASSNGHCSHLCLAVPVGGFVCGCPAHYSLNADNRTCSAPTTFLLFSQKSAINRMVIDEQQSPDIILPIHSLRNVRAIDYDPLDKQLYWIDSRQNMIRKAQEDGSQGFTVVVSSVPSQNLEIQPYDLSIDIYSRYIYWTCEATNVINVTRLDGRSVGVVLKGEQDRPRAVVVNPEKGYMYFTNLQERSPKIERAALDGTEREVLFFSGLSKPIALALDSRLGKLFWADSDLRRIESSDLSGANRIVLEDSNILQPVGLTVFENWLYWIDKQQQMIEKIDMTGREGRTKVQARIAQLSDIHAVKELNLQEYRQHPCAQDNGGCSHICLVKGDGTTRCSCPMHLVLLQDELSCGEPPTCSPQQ
Experimental: as §1

[4] = biological target: T1, human LRP6 construct E1E2 (amino acids …); experiment: BLI (FIG. 9B)
Experimental: as §1

LRP6 E1E4 = biological target: T4, LRP6 E1E4 (Homo sapiens, UniProt O75581); experiment: Biolayer interferometry binding to LRP6 E1E4
T4 construct: construct E1E4-amino acids A20-Q1253 of LPR6; made in house; host or cells: Tni insect cells (baculovirus, secreted)
T4 sequence (O75581 20-1253): T3 sequence (looked up)
Experimental: as §1, with “(R^2)” for “(R²)”
(§2) The interaction of the different Dkks and sclerostin with various domains of LRP6 was measured using a biolayer interferometry assay (11). Purified receptors contained individual β-propeller-EGF-like units (E1, E2, or E4), two β-propellers (E1E2 or E3E4), or four β-propellers (E1E4))—as follows:
(§3) Human LRP6: construct E1E4-amino acids A20-Q1253 of LPR6; construct E1E2-amino acids A20-E631 of LPR6; construct E3E4 amino acids E631-Q1253 of LPR6; construct E1-amino acids A20-D325 of LPR6; construct E2-amino acids […]-E631 of LPR6; construct E4-T933-Q1253. The individual LRP6 β-propeller E3 could not be expressed.

LRP6 E3E4 = biological target: T5, LRP6 E3E4 (Homo sapiens, UniProt O75581); experiment: Biolayer interferometry binding to LRP6 E3E4
T5 construct: construct E3E4 amino acids E631-Q1253 of LPR6; made in house; host or cells: Tni insect cells (baculovirus, secreted)
T5 sequence (O75581 631-1253): T2 sequence (looked up)
Experimental: as §1, with “(R^2)” for “(R²)”
as §2, §3

B1: Dkk2 (ligand)
chain: KLNSIKSSLGGETPAQSANRSAGMNQGLAFGGSKKGKSLGQAYPCSSDKECEVGRYCHSPHQGSSACMLCRRKKKRCHRDGMCCPGTRCNNGICIPVTESILTPHIPALDGTRHRDRNHGHYSNHDLGWQNLGRPHSKMPHIKGHEGDPCLRSSDCIDGFCCARHFWTKICKPVLHQGEVCTKQRKKGSHGLEIFQRCDCAKGLSCKVWKDATYSSKARLHVCQKI
Kd [1]: 53 nM
Kd [2]: 38 nM

B2: Dkk1 H204E (ligand, human, UniProt O94907 32-266, looked up)
chain: TLNSVLNSNAIKNLPPPLGGAAGHPGSAVSAAPGILYPGGNKYQTIDNYQPYPCAEDEECGTDEYCASPTRGGDAGVQICLACRKRRKRCMRHAMCCPGNYCKNGICVSSDQNHFRGEIEETITESFGNDHSTLDGYSRRTTLSSKMYHTKGQEGSVCLRSSDCASGLCCAREFWSKICKPVLKEGQVCTKHRRKGSHGLEIFQRCYCGEGLSCRIQKDHHQASNSSRLHTCQRH
binding result [3]: binds
binding result [4]: binds
binding to LRP6 E1E4 (in words) (LRP6 E1E4): retain binding
binding to LRP6 E3E4 (in words) (LRP6 E3E4): interfered with binding; also recorded: affect binding
